Where no end group is shown, it is not given here. [ ]: non-standard residue; d: D form. pT = C[C@@H](OP(=O)(O)O)[C@H](N)C(=O)O
How the values were obtained:
HisSUMO-TTF2 1-100 [1] = biological target: T1, HisSUMO-TTF2 1-100 (mouse, UniProt Q5NC05 1-100); test: ITC; phosphorylated T325
T1 chain: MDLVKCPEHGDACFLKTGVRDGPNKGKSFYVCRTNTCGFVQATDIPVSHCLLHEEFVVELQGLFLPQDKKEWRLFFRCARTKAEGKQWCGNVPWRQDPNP

HisSUMO-TTF2 1-100 [2] = biological target: T2, HisSUMO-TTF2 1-100 (mouse, UniProt Q5NC05 1-100); test: ITC; MicroCal PEAQ-ITC; 20 µM HisSUMO-TTF2 1-100 in the cell, 200 µM TRAIP peptide injected (19 x 2 µl); 50 mM Tris-HCl pH 7.5, 100 mM NaCl, 0.5 mM TCEP; conditions: both partners purified
T2 construct: mouse TTF2 residues 1-100 (tandem Zinc fingers); also called His-SUMO-tagged TTF2; recombinant form of TTF2 1-100; source: E. coli Rosetta (DE3) pLysS, purified (Ni-NTA, Superdex 200); not shown: 14His, N-terminal, kept; Smt3 (budding yeast SUMO), N-terminal, kept
T2 sequence (looked up): T1 chain

[3] = biological target: the molecule itself; test: mass photometry; Refeyn OneMP; TRAIP diluted to 6.4 ng/µl (~50 nM of TRAIP dimer); 25 mM Hepes-KOH pH 7.9, 150 mM NaCl, 10 mM MgOAc, 1 mM DTT
[4] = biological target: T3, His-SUMO-TTF2 1-100 (tandem zinc fingers) (Mus musculus, UniProt Q5NC05 1-100); test: EMSA; 10 nM DNA; EMSA buffer (25 mM buffer component; full composition not in the material), 10 nM Cy5-DNA, 10 µl, room temperature, 10 min; Novex TBE 4-12% gel, 150 V, 40 min; conditions: protein: recombinant, tags: N-terminal 14His-SUMO (yeast Smt3)
T3 sequence: T1 chain

B1: peptide corresponding to mouse TRAIP 313-329 with phosphorylated T325 (peptide)
peptide: FGDEIDLNTTFDVN[pT]PPTQ
modifications: not fully specified; printed as FGDEIDLNTTFDVN**T**PPTQ
notes: mouse TRAIP; the CDK consensus (T followed by P) points to the 15th letter; also called phosphorylated peptide; source: synthetic peptide (Peptide & Elephants)
Question: For B1, which Kd (HisSUMO-TTF2 1-100 [1]) is on record?
Answer: 2300 nM

Question: Does B1 bind (HisSUMO-TTF2 1-100 [2])?
Answer: binds

B2: recombinant mouse TRAIP (enzyme, UniProt Q8VIG6-1 1-470, looked up)
chain: MPIRALCTICSDFFDHSRDVAAIHCGHTFHLQCLIQWFETAPSRTCPQCRIQVGKKTIINKLFFDLAQEEENVLDAEFLKNELDSVKAQLSQKDREKRDSQAIIDTLRDTLEERNATVESLQNALNKAEMLCSTLKKQMKFLEQRQDETKQAREEAHRLKCKMKTMEQIELLLQSQRSEVEEMIRDMGVGQSAVEQLAVYCVSLKKEYENLKEARKATGELADRLKKDLVSSRSKLKTLNTELDQAKLELRSAQKDLQSADQEITSLRKKLMILQGTLSLPPATNETVSRLVFESPAPVEMMNPRLHQPPFGDEIDLNTTFDVNTPPTQTSGSQHCLPKKLCLERARSPMQNVLKKVHKVSKPESQLSLGGQRCVGELDEELAGAFPLFIRNAVLGQKQPNRTTAESRCSTDVVRIGFDGLGGRTKFIQPRDTTIIRPVPVKSKAKSKQKVRIKTVSSASQPKLDTFLCQ
notes: Mw of the monomer 53.1 kDa; the tag was cut off with Ulp1; also called purified TRAIP; TRAIP ubiquitin ligase; source: E. coli Rosetta (DE3) pLysS, purified (Ni-NTA, HiTrapQ, HiTrap Heparin, Superose 6); not shown: 14His-Smt3 (budding yeast SUMO), N-terminal, cleaved
Question: For B2, which “stoichiometry N” value [3] is on record?
Answer: 2

B3: YX011 80-nt ssDNA (ssDNA)
DNA: CAGTGCCAAGCTTGCATGCCTGCAGGTCGACTCTAGAGGATCCCCGGGTACCGAGCTCGAATTCGTAATCATGGTCATAG
Question: Does B3 bind ([4]; label: 5'-Cy5)?
Answer: no binding

B4: YX011/YX012 80-bp dsDNA (dsDNA)
DNA 1: B3 DNA
DNA 2: CTATGACCATGATTACGAATTCGAGCTCGGTACCCGGGGATCCTCTAGAGTCGACCTGCAGGCATGCAAGCTTGGCACTG
Question: Does B4 bind ([4]; label: 5'-Cy5 on strand 1, blunt)?
Answer: no binding

From doi:10.1101/2024.12.01.626218, “TTF2 drives mitotic replisome disassembly and MiDAS by coupling the TRAIP ubiquitin ligase to Polε” (bioRxiv, 2024)
